This data set is described as follows: yeast display, Sf9 membrane polyspecificity reagent, FACS + sequencing; frameworks hold sequencing errors. In outline: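 Genes from sorted yeast were amplified by colony PCR, read by MiSeq 2 × 250 sequencing and filtered on CDR length. These cells carried a synthetic nanobody library in Saccharomyces cerevisiae BJ5465 and were sorted by FACS into low and high (top ~1%) gates on anti-HA and streptavidin fluorescence. Polyreactivity is labelled according to the gate of origin.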
With “QVQLVESGGGLVQAGGSLRLSCAASGIIFSPYAMGWYRQAPGKERELVAAINFSTGRTYYADSVKGRFTISRDNAKNTVYLQMNSLKPEDTAVYYCAAGKYPYVFRGGYDYWGQGTQVTVSS”, the “polyreactivity (PSR sort gate)” value is “low polyreactivity”.
With “QVQLVESGGGLVQAGGSLRLSCAASGIIFSQYAMGWYRQAPGKERELVAGITRSGGSTYYADSVKGRFSISRDNAKNTVYLQMNSLKPDDTAVYYCAAVQRYEYGYWGQGTQVTVSS” the entry was “high polyreactivity”; with “QVQLVESGGGLVQAGGSLRLSCAASGIIFSRYAMGWYRPAPGKVRELVASITGRVGSTYYADSVKGPFTISRDNAKNTVYLQMNRLNPEDTAVYYCAADYVYKFDYWGHGTQVTVSS”, “low polyreactivity”.
Then “QVQLVESGGGLVQAGGSLRLSCAASGIIFSSYAMGWYRQAPGKERELVAAIDWRGDSTYYADSVKGRFTISRDNAKNTVYLQMNSLKPEDTAVYYCAADGSTYDSVRYGYWGQGTQVTVSS”, with “low polyreactivity”; and “QVQLVESGGGLVQAGGSLRLSCAASGIIFSSYAMGWYRQAPGKERELVAAITSGGNTNYADSVKGRFTISRDNAKNTVYLQMNSLKTEDISVYYCNADTSFVWLAWHQYGFGYWGQGTQVTLSS”, with “low polyreactivity”; and “QVQLVESGGGLVQAGGSLRLSCAASGIIFSSYAMGWYRQAPGKERELVAAITYNGGRTYYADSVKGRFTISRDNAKNTVYLQMNSVKPEDTAVYYCAAERYPYGVTYSKLDYWGQGTQVTVSS”, with “high polyreactivity”.
Then “QVQLVESGGGLVQAGGSLRLSCAASGIIFSVNAMGWYRQAPGTERELVAAISSSGGDTYYADSVKGRFTISRDNAKNTVYLQMNSLKPEDTAVYYCAASVEQPGLAYDYWGQGTQVTVSS”, with “low polyreactivity”; and “QVQLVESGGGLVQAGGSLRLSCAASGIIFSYNAMGWYRQAPGKERELVAAITSGGITNYADSVKGRFTISRDNAKNTVYLQMNSLKPEDTAVYYCAAEVWRYYRRDYWGQGTQVTVSS”, with “low polyreactivity”; and “QVQLVESGGGLVQAGGSLRLSCAASGIIFSYYDMGWYRQAPGKERELVATITGNGGSTYYADSVKGRFTISRDNAKNTVYLQMNSLKPEDTAVYYCAAQTTVYIYDYWGQGTQVTVSS”, with “low polyreactivity”.
“QVQLVESGGGLVQAGGSLRLSCAASGIIFTDNAMGWYRQAPGKERELVATISWSTDNTYYADSVKGRFTISRDNAKNTVYLQMNSLKPEDTAVYYCAAEEYYAYWYQYDYWGQGTQVTVSS”: the “polyreactivity (PSR sort gate)” value is recorded as “low polyreactivity”.
On to “QVQLVESGGGLVQAGGSLRLSCAASGIIFTDYAMGWYRQAPGKERELVAAISSGGGSTYYADSVKGRFTNSRDYAKNTVYLQMNSLKPEDTAVYYCAAQTSGSYGFDHWGQGTQVTVSS”, for which the “polyreactivity (PSR sort gate)” value is “high polyreactivity”.
For “QVQLVESGGGLVQAGGSLRLSCAASGIIFTHNAMGWYRQAPGKERELVAAISWSGGSTYYADSVKGRFTISRDNAKNTVYLQMNSLKPEDTAVYYCNAKFKQSYAQVAKFNSWGQGTQVTVSS”, the “polyreactivity (PSR sort gate)” value was “low polyreactivity”.
For “QVQLVESGGGLVQAGGSLRLSCAASGIIFTLYAMGWYRQAPGKERELVATISTGGGTYYADSVKGRFTISRDNAKNTVYLQMNSLKPEDTAVYYCAAKRYWNFRYDYWGQGTQVTVSS”, the “polyreactivity (PSR sort gate)” value is “high polyreactivity”.
Then “QVQLVESGGGLVQAGGSLRLSCAASGIIFTLYATGWYRQAPGKERELVAAISGSGGSTYYADSVKGRFTISRDNAKNTVYLQMNSLKPEDTAVYYCAARGVRGTGLDSRMYYWGQGTQVTVSS”, with “high polyreactivity”; and “QVQLVESGGGLVQAGGSLRLSCAASGIIFTQNGMGVYRPAPGKERELVAAISWSAGGTYYADSVKGRFTISRDNAKNTVYLQMNSLIPEDTAVYYCNARVYNVFREFNSWGQGTQVTVSS”, with “low polyreactivity”.
As to “QVQLVESGGGLVQAGGSLRLSCAASGIIFTSNTMGWYRQAPGKVREFVASINWNGSSTYADSVKGRFTISRDNAKYTVYLQMNSLKPEDTAVYSCNADYNRNSVQFSLYDYWGQGTQVTVSS”, the “polyreactivity (PSR sort gate)” value is “low polyreactivity”.
As to “QVQLVESGGGLVQAGGSLRLSCAASGIIFTTNAMGWYRQAPGKERELVATITSGGGTYYADSVKGRFTISRDNAKNTVYLQMNSLKPEDTAVYYCAATPGWGPWIFDHSYVDFDYWGQGTQVTVSS”, the “polyreactivity (PSR sort gate)” value is given as “low polyreactivity”.
Then “QVQLVESGGGLVQAGGSLRLSCAASGIIFTTNMGWYRQAPGKERELVATIRVNGGRTYYADSVKGRFTISRDNAQNTVYLQMNSLKPEDTAVYYCAARYSAGAQRYGYWGQGTQVTVSS”, with “high polyreactivity”; and “QVQLVESGGGLVQAGGSLRLSCAASGIIFTYYAMGWYRPAPGKERELVAAISSGGGSTYYADSVKGRFTISRDNAKITVYLQMNSLKPEDTAVYYCNADYYFVYTYLHDYWGQGTQVTVSS”, with “low polyreactivity”.
With “QVQLVESGGGLVQAGGSLRLSCAASGIIFTYYAMGWYRQAPGKERELVASISSSGTSTYYADSVKGRFTISRDYAKNTVYLQMNSLKPEDTAVYYCAADWTGSNGVDYWGQGTQVTVSS” the entry was “low polyreactivity”.
Then “QVQLVESGGGLVQAGGSLRLSCAASGIIFVGYAMGWYRQAPGKERELVAAISSGGSTNYADSVKGRFTISRDNAKNTVYLQMNSLKPEDTAVYYCATDSGDGEGDYWGQGTQVTVSS”, with “low polyreactivity”.
For “QVQLVESGGGLVQAGGSLRLSCAASGIIFVKYTMGWYRQAPGKERELVAAISRSGGSTYYADSVKGRFTISRDNAKNTVYLQMNSLKPEDTAVYYCNAVSRKVYPGPMDYWGQGTQVTVSS”, the “polyreactivity (PSR sort gate)” value is “high polyreactivity”.
With “QVQLVESGGGLVQAGGSLRLSCAASGIIFVKYTMGWYRQAPGKERELVAAITRGGSTYYADSVKGRFTISRDNAKNTVYLQMNSLKPEDTAVYYCAAAWYQYFVPGYRGYTYYYWGQGTQVTVSS” the entry was “high polyreactivity”; with “QVQLVESGGGLVQAGGSLRLSCAASGIIFVSYMGWYRQAPGKERELVAAIRWSGGRTYYADSVKGRFTISRDNAKNTVYLQMNSLKPEDTAVYFCAADALRKPKIALYDYWGQGTQVTVSS”, “high polyreactivity”; with “QVQLVESGGGLVQAGGSLRLSCAASGIIFVYYVMGWYRQAPGKERELVASIDGSGGSTNYADSVKGRFTISRDNAKNTVYLQMNSLKPEDTAVYYCNADNILYWSTLDYWGQGTQVTVSS”, “low polyreactivity”.
Take “QVQLVESGGGLVQAGGSLRLSCAASGIIFWFYAMGWNRQAPGKERELVAAISGDGDSTYYADSVKGRFTISRDNAKNTVYLQMNSLKPEDTAVYYCAAEWDPVFATDEDDYWGQGTQVTVSS”: the “polyreactivity (PSR sort gate)” value was “low polyreactivity”.
In the case of “QVQLVESGGGLVQAGGSLRLSCAASGIIFWPYAMGWYRQAPGKERELVASISTGGSTHYADSVKGRFTISRDNAKNTVYLQLNSLKPEDTAVYYCNADVGPTYSYDYWGQGTQVTVSS”, the “polyreactivity (PSR sort gate)” value is on record as “low polyreactivity”.
Then “QVQLVESGGGLVQAGGSLRLSCAASGIIFWRYAMGWYRQAPGKERELVASISSSGGRTYYADSVKGRFTISRDNAKNTVYLQMNSLTPEDTAVYYCAARGPYGYDLLYYWGQGTQVTVSS”, with “high polyreactivity”; and “QVQLVESGGGLVQAGGSLRLSCAASGIIFWSYVMGWYRQAPGKERELVAAITFSGGSTYYADSVKGRFTISRDNAKNTVYLQMNSLKPEDTAVYYCAARYKLVRRYDYWGQGTQVTVSS”, with “low polyreactivity”.
For the sequence “QVQLVESGGGLVQAGGSLRLSCAASGIIFWWYAMGWSRQAPGKERELVAAISGTGGSTYYADSVKGRFTISRDNAKNTVYLQMNSLKPEDTAVYYCAKRASPFWRGYDSWGQGTQVTVSS”, the “polyreactivity (PSR sort gate)” value is “low polyreactivity”.
With “QVQLVESGGGLVQAGGSLRLSCAASGIIFWWYTRGWYRQAPGKERELVAAISRGGNTNYADSVKGRFTISRDNAKNTVYLQMNSLKPEDTAGYYCAADRHYRFWQDDYWGQGTQVTVSS” the entry was “high polyreactivity”; with “QVQLVESGGGLVQAGGSLRLSCAASGIIFWYNAMGWYRQAPGKERELVASISTGGRTYYADSVKGRFTISRDNAKNTVYLQMNSLKPEDTAVYYCAAASRVGFLYCYWGQGTQVTVSS”, “low polyreactivity”.
Then “QVQLVESGGGLVQAGGSLRLSCAASGIIFWYNTMGWYRQAPGKERELVAAITYGGGSTYYADSVKGRFTISRDNAKNSVYLQMNSLKPEDTAVYYCAVRNWHLIKYLHGYSRYGYWGQGTQVTVSS”, with “low polyreactivity”.
In the case of “QVQLVESGGGLVQAGGSLRLSCAASGIIFWYYAMGWYRQAPGKERELVAAINSGGSTNYADSVKGRFTISRDNAKNTVYLQMNSLKQEDTAVYYCAARYRWPIPGTQYEYWGQGTQVTVSS”, the “polyreactivity (PSR sort gate)” value is reported as “low polyreactivity”.
Regarding “QVQLVESGGGLVQAGGSLRLSCAASGIIFWYYAMGWYRQAPGKERELVAAISSGGGTNYADSVKGRFTISRDNAKNTVSLQMNSLKPEDTAVYYCNADDNPVWEYDYWGQGTQVTVSS”, the “polyreactivity (PSR sort gate)” value is listed as “low polyreactivity”.
Then “QVQLVESGGGLVQAGGSLRLSCAASGIIFYDNALGWYRQAPGKERELVAALDSDGSTDYADSVKGRFTISRDNAKNTVYLQMNSLKPEDTAVYYCAADLVWYASGRYIYRGYDYWGQGTQVTVSS”, with “low polyreactivity”; and “QVQLVESGGGLVQAGGSLRLSCAASGIIFYDYAMGWYRQAPGKERELVAAISRSGGSTYYADSVKGRFTISRDNAKNTVYLQMNSLKPEDTAVYYCAKDRDFSSPPTESGFDYWGQGTQVTVSS”, with “low polyreactivity”.
Take “QVQLVESGGGLVQAGGSLRLSCAASGIIFYDYAMGWYRQAPGKERELVAAITSNGDNTYYADSVKGRFTISRDNAKNTVYLQMNSLKPEDTAVYYCDVDGSFAADFDNYLEEYGYWGQGTQVTVSS”: the “polyreactivity (PSR sort gate)” value was “low polyreactivity”.
Then “QVQLVESGGGLVQAGGSLRLSCAASGIIFYDYAMGWYRQAPGKERELVAAITSSGGSTYYADSVKGRFTISRDNAKNTVYLQMNSLKPEDTAVYYCADATRGSGRRYDYWGQGTQVTVSS”, with “high polyreactivity”.
Regarding “QVQLVESGGGLVQAGGSLRLSCAASGIIFYFYAMGWYRQAPGKERELVADITSGDRTNYADSVKGRFTISRDNAKNTVYLQMNSLKPEDTAVYYCAAGTSKPTPIYGYWGQGTQVTVSS”, the “polyreactivity (PSR sort gate)” value was “low polyreactivity”.
In the case of “QVQLVESGGGLVQAGGSLRLSCAASGIIFYGYVMGWYRQAPGKERELVATITSSGGSTYYADSVKGRFTISRDNAKNTVYLQMNSLKPEDTAVYYCAAYYYYGAWVRHDYWGQGTQVTVSS”, the “polyreactivity (PSR sort gate)” value is “low polyreactivity”.

For the origin of these results see the nanobody polyreactivity screen of Harvey et al. (2022).
